This note sets out measurements from patent US20110311515A1.

Substrate in this experiment: F protein of RSV (hRSV strain Long LM-2) (hRSV strain Long) (UniProt P12568)
The experiment in a line: cell-based or functional assay.

F protein of RSV (hRSV strain Long LM-2) (hRSV strain Long), sequence (P12568 26-574): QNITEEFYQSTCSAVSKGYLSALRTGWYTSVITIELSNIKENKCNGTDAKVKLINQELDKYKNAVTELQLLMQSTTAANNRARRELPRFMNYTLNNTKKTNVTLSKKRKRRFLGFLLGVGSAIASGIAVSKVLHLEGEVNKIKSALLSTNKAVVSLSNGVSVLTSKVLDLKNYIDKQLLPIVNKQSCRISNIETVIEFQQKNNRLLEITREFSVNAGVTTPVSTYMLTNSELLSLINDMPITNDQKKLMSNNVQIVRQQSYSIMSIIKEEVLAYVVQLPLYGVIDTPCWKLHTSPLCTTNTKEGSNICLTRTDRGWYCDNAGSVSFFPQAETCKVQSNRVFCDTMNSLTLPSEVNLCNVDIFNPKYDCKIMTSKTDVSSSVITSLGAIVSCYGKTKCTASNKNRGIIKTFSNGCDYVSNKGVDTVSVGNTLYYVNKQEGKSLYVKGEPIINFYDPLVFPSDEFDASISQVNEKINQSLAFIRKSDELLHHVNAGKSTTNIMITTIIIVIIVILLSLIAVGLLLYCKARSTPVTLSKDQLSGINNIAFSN

B1: RSV407 (VHH)
chain: EVQLVESGGGLVQAGGSLSISCAASGGSLSNYVLGWFRQAPGKEREFVAAINWRGDITIGPPNVEGRFTISRDNAKNTGYLQMNSLAPDDTAVYYCGAGTPLNPGAYIYDWSYDYWGRGTQVTVSSGGGGSGGGGSGGGGSEVQLVESGGGLVQAGGSLSISCAASGGSLSNYVLGWFRQAPGKEREFVAAINWRGDITIGPPNVEGRFTISRDNAKNTGYLQMNSLAPDDTAVYYCGAGTPLNPGAYIYDWSYDYWGRGTQVTVSSGGGGSGGGGSGGGGSEVQLVESGGGLVQAGGSLSISCAASGGSLSNYVLGWFRQAPGKEREFVAAINWRGDITIGPPNVEGRFTISRDNAKNTGYLQMNSLAPDDTAVYYCGAGTPLNPGAYIYDWSYDYWGRGTQVTVSSAAAEQKLISEEDLNGAAHHHHHH
As to B1, the IC50, neutralization of RSV infection, Long strain was found to be 0.1 nM.

B2: building block of RSV407 (monovalent Nanobody) (VHH)
VHH: EVQLVESGGGLVQAGGSLSISCAASGGSLSNYVLGWFRQAPGKEREFVAAINWRGDITIGPPNVEGRFTISRDNAKNTGYLQMNSLAPDDTAVYYCGAGTPLNPGAYIYDWSYDYWGRGTQVTVSS
Take B2: the IC50, neutralization of RSV infection, Long strain fell in the range of 50 to 100 nM.
